Results as given in PMC3229523, “Identification of Lactoferricin B Intracellular Targets Using an Escherichia coli Proteome Chip” (PLoS ONE, 2011).
Ends that are not written are not given here. * marks the point of attachment. Biotin = O=C1N[C@H]2[C@H](CS[C@H]2CCCCC(=O)*)N1

What was measured:
Experiment in all cases: peptide or protein array; E. coli proteome chip: purified His-tagged proteins printed in duplicate on Fullmoon slides, blocked with 1% BSA; 10 nM N-terminal biotinylated LfcinB with 1% BSA, room temperature, 1 h; detected with DyLight 649-labeled streptavidin, ratio to DyLight 549-labeled anti-His antibody; ProCAT normalisation, local cut-off; triplicate chips
Settings in all cases: both partners purified
YjeS = biological target: T1, YjeS (E. coli K-12, UniProt P39288 1-379)
T1 construct: YjeS, E. coli K-12
T1 sequence (looked up): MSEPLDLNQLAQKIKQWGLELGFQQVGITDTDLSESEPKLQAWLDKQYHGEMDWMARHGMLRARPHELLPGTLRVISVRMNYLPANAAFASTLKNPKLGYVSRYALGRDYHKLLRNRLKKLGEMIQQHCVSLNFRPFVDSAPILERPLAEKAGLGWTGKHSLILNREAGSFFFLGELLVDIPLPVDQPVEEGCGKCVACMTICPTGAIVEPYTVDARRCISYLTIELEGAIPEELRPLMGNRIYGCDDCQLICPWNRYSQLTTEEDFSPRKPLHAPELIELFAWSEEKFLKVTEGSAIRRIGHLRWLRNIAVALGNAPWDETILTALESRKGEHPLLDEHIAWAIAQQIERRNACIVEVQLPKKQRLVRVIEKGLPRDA

YhjC = biological target: T2, YhjC (E. coli K-12, UniProt P37641 1-299)
T2 construct: YhjC, E. coli K-12
T2 sequence (looked up): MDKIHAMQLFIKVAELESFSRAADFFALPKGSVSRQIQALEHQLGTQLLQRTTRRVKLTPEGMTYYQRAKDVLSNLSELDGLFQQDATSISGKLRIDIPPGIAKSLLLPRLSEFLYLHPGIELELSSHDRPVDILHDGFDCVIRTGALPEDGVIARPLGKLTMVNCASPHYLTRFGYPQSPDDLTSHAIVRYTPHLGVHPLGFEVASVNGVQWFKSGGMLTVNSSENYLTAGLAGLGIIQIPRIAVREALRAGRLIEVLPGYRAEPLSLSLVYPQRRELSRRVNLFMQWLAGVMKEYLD

YefE = biological target: T3, YefE (E. coli K-12, UniProt P37747 1-367)
T3 construct: YefE, E. coli K-12
T3 sequence (looked up): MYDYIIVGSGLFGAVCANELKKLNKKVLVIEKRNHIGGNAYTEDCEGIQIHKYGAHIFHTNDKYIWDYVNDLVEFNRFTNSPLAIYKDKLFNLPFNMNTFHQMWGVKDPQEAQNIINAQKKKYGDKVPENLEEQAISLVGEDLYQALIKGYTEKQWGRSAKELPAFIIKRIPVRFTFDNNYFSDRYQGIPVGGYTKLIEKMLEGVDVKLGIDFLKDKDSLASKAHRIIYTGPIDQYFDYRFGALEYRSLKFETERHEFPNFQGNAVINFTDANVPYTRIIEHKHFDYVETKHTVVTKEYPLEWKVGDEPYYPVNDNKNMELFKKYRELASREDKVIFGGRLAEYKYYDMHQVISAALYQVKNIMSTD

YobG = biological target: T4, YobG (E. coli K-12, UniProt P64512 1-47)
T4 construct: YobG, E. coli K-12
T4 chain (looked up): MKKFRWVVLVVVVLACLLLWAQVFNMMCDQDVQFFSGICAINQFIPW

YqhC = biological target: T5, YqhC (E. coli K-12, UniProt Q46855 1-318)
T5 construct: YqhC, E. coli K-12
T5 sequence (looked up): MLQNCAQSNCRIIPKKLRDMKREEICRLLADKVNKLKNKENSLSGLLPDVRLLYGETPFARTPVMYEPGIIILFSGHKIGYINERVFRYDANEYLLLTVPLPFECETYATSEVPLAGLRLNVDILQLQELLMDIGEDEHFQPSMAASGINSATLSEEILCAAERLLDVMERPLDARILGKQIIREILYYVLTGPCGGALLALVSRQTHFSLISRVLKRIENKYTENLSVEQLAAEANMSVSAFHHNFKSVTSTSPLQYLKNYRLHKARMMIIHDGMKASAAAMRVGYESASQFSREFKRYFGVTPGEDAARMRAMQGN

YrfI = biological target: T6, YrfI (E. coli K-12, UniProt P0A6Y5 1-292)
T6 construct: YrfI, E. coli K-12
T6 sequence (looked up): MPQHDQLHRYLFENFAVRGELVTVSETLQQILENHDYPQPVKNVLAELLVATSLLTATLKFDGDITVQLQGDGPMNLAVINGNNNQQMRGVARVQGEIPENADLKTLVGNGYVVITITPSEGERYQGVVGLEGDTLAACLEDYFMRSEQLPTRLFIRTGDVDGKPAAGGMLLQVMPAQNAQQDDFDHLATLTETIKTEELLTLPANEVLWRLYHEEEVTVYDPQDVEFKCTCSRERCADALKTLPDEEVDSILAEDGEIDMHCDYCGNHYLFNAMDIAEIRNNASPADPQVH

Measured: binding result

B1: N-terminal biotinylated Lactoferricin B (peptide, UniProt P24627 36-60, looked up)
peptide: Biotin-FKCRRWQWRMKKLGAPSITCVRRAF
modifications: ends and bridges not checked
notes: lactoferricin B (LfcinB), cationic antimicrobial peptide of 25 amino acids; also called biotinylated LfcinB; biotin-labeled LfcinB; source: bought: Kelowna Inc
binds: YjeS | YhjC | YefE | YobG | YqhC | YrfI
